Read-outs that look alike come from different tables or passages of the source. Values belong to the molecule of their own block, whether it stands above or below them.
Tests used:
MjFsr = target: T1, MjFsr (Methanocaldococcus jannaschii, UniProt Q58280); test: X-ray crystal structure, […] Å; type: binding; details: F420H2-oxidase domain
T1 construct: gene fsr; full length, native purification from M. jannaschii grown on sulfite; homotetramer, residues to 620
T1 sequence (Q58280 1-620): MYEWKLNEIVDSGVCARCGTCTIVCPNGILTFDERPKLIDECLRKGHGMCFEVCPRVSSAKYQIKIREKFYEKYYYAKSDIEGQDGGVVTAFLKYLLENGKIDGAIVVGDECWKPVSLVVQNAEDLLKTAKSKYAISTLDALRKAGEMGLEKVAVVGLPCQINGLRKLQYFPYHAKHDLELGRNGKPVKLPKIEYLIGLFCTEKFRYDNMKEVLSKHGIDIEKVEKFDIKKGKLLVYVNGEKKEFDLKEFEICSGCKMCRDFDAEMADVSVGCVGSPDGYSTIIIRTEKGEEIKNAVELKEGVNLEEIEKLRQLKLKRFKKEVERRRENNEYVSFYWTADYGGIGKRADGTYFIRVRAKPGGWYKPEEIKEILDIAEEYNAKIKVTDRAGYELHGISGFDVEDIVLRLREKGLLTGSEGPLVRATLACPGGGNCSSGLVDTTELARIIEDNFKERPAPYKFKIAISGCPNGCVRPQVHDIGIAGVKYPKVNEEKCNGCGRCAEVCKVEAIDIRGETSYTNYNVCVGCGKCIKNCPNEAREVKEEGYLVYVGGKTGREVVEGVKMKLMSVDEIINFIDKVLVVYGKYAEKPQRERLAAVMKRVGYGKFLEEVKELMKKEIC

MtFsr = system: T2, MtFsr; test: F420H2 oxidation followed at […] nm; type: biochemical, Methanothermococcus thermolithotrophicus; details: anaerobic, read-out: Apparent Km
T2 construct: gene fsr; full length, native purification from M. thermolithotrophicus grown on sulfite (assays) or sulfate (crystals); FAD, siroheme, six [4Fe-4S] clusters per subunit

[1] = target: coenzyme F420-dependent sulfite reductase (Group I Fsr) from Methanothermococcus thermolithotrophicus (Methanothermococcus thermolithotrophicus (endogenous in strain DSM 2095)); test: crystal structure; MtFsr at 11 mg/ml cocrystallized with FAD and F420H2; 200 mM lithium sulfate, 100 mM Bis-Tris pH 5.5, 25% w/v PEG 3350; anaerobic, 20 °C; four homotetramers in the asymmetric unit
[2] = target: coenzyme F420-dependent sulfite reductase (Group I Fsr) from Methanothermococcus thermolithotrophicus (Methanothermococcus thermolithotrophicus (endogenous in strain DSM 2095)); test: SEC; purified MtFsr on Superdex 200 Increase 10/300 GL, 0.4 ml/min, 25 mM Tris-HCl pH 7.6, 10% v/v glycerol, 2 mM DTT, anaerobic; standards conalbumin, aldolase, ferritin; apparent molecular weight
[3] = target: coenzyme F420-dependent sulfite reductase (Group I Fsr) from Methanothermococcus thermolithotrophicus (Methanothermococcus thermolithotrophicus (endogenous in strain DSM 2095)); test: native gel or EMSA; anaerobic high-resolution clear-native PAGE (8-15% gradient) of cell extracts of cultures grown on 2 mM Na2S or 2 mM Na2SO3
[4] = target: the molecule itself; test: crystal structure; MjFsr at 6.1 mg/ml; 45% v/v 2-methyl-2,4-pentanediol, 100 mM Bis-Tris pH 5.5, 200 mM calcium chloride; anaerobic, 20 °C; two half homotetramers in the asymmetric unit

Molecule: Cc1cc2nc3c(=O)[nH]c(=O)nc-3n(C[C@H](O)[C@H](O)[C@H](O)COP(=O)(O)OP(=O)(O)OC[C@H]3O[C@@H](n4cnc5c(N)ncnc54)[C@H](O)[C@@H]3O)c2cc1C [FAD]
X-ray crystal structure, 2.30 Å (MjFsr): The active site of the F420H2-oxidase domain of Fsr contains a flavin adenine dinucleotide (FAD

Molecule: O=NO [NO2^−]
Km (MtFsr; 0-500 µM NaNO2, 50 µM F420H2, 200 mM KH2PO4 pH 7.0, 50 °C): 2.5 ± 0.2 µM

Km (MtFsr; 0-500 µM Na2SO3, 50 µM F420H2, 200 mM KH2PO4 pH 7.0, 50 °C): 15.6 ± 2 µM
Molecule: O=S(O)O [SO3^2−]

stoichiometry N [1]: 4
stoichiometry N [2]: 4
stoichiometry N [3]: 4
Molecule: coenzyme F420-dependent sulfite reductase (Group I Fsr) from Methanothermococcus thermolithotrophicus

B1: coenzyme F420-dependent sulfite reductase (Group I Fsr) from Methanocaldococcus jannaschii (enzyme, UniProt Q58280 1-620, looked up)
chain: T1 sequence (Q58280 1-620)
notes: Group I coenzyme F420-dependent sulfite reductase (Fsr) of Methanocaldococcus jannaschii DSM 2661; Native enzyme, no tag; Each chain carries FAD, six [4Fe-4S] clusters and a siroheme; also called MjFsr; source: purified natively from M. jannaschii DSM 2661 cells under anaerobic atmosphere (Q Sepharose, Source15Phe, Superdex 200)
stoichiometry N [4]: 4
